This series has as its target T1, fluorescently quenched α-gliadin hexapeptide analogue QXL520-PQPQLP-K(5-FAM)-NH2.
T1 chain: PQPQLP

In patent US20190083585 one finds Fold Change in Activity of PQ Hydrolysis Relative to Wild Type Kumamolysin-As data, which are given here for 14 proteins.

B1: Kumamolisin-As N291D, Q361D (protein)
chain: AAPTAYTPLDVAQAYQFPEGLDGQGQCIAIIELGGGYDEASLAQYFASLGVPAPQVVSVSVDGASNQPTGDPSGPDGEVELDIEVAGALAPGAKFAVYFAPDTDAGFLDAITTAIHDPTLKPSVVSISWGGPEDSWTSAAIAAMNRAFLDAAALGVTVLAAAGDSGSTDGEDDGLYHVDFPAASPYVLACGGTRLVASGGRIAQETVWNDGPDGGATGGGVSRIFPLPAWQEHANVPPSANPGASSGRGVPDLAGNADPATGYEVVIDGEATVIGGTSAVAPLFAALVARINQKLGKAVGYLNPTLYQLPADVFHDITEGNNDIANRAQIYQAGPGWDPCTGLGSPIGVRLLQALLPSASQPQPGSTENLYFQSGALEHHHHHH
For the protein B1, the Fold Change in Activity of PQ Hydrolysis Relative to Wild Type Kumamolysin-As came out at 7.5 fold.

B2: Kumamolisin-As N291D, D293A, D358N (protein)
chain: AAPTAYTPLDVAQAYQFPEGLDGQGQCIAIIELGGGYDEASLAQYFASLGVPAPQVVSVSVDGASNQPTGDPSGPDGEVELDIEVAGALAPGAKFAVYFAPDTAAGFLDAITTAIHDPTLKPSVVSISWGGPEDSWTSAAIAAMNRAFLDAAALGVTVLAAAGDSGSTNGEQDGLYHVDFPAASPYVLACGGTRLVASGGRIAQETVWNDGPDGGATGGGVSRIFPLPAWQEHANVPPSANPGASSGRGVPDLAGNADPATGYEVVIDGEATVIGGTSAVAPLFAALVARINQKLGKAVGYLNPTLYQLPADVFHDITEGNNDIANRAQIYQAGPGWDPCTGLGSPIGVRLLQALLPSASQPQPGSTENLYFQSGALEHHHHHH
With B2, the Fold Change in Activity of PQ Hydrolysis Relative to Wild Type Kumamolysin-As was determined as 24 fold.

B3: Kumamolisin-As N291D, D358N (protein)
chain: AAPTAYTPLDVAQAYQFPEGLDGQGQCIAIIELGGGYDEASLAQYFASLGVPAPQVVSVSVDGASNQPTGDPSGPDGEVELDIEVAGALAPGAKFAVYFAPDTDAGFLDAITTAIHDPTLKPSVVSISWGGPEDSWTSAAIAAMNRAFLDAAALGVTVLAAAGDSGSTNGEQDGLYHVDFPAASPYVLACGGTRLVASGGRIAQETVWNDGPDGGATGGGVSRIFPLPAWQEHANVPPSANPGASSGRGVPDLAGNADPATGYEVVIDGEATVIGGTSAVAPLFAALVARINQKLGKAVGYLNPTLYQLPADVFHDITEGNNDIANRAQIYQAGPGWDPCTGLGSPIGVRLLQALLPSASQPQPGSTENLYFQSGALEHHHHHH
Protein B3 came in with a Fold Change in Activity of PQ Hydrolysis Relative to Wild Type Kumamolysin-As of 18.9 fold.

B4: Kumamolisin-As N291D, D293A, D358G, Q361D (protein)
chain: AAPTAYTPLDVAQAYQFPEGLDGQGQCIAIIELGGGYDEASLAQYFASLGVPAPQVVSVSVDGASNQPTGDPSGPDGEVELDIEVAGALAPGAKFAVYFAPDTAAGFLDAITTAIHDPTLKPSVVSISWGGPEDSWTSAAIAAMNRAFLDAAALGVTVLAAAGDSGSTGGEDDGLYHVDFPAASPYVLACGGTRLVASGGRIAQETVWNDGPDGGATGGGVSRIFPLPAWQEHANVPPSANPGASSGRGVPDLAGNADPATGYEVVIDGEATVIGGTSAVAPLFAALVARINQKLGKAVGYLNPTLYQLPADVFHDITEGNNDIANRAQIYQAGPGWDPCTGLGSPIGVRLLQALLPSASQPQPGSTENLYFQSGALEHHHHHH
Regarding B4, the Fold Change in Activity of PQ Hydrolysis Relative to Wild Type Kumamolysin-As worked out at 15 fold.

B5: Kumamolisin-As N291D, D293A (protein)
chain: AAPTAYTPLDVAQAYQFPEGLDGQGQCIAIIELGGGYDEASLAQYFASLGVPAPQVVSVSVDGASNQPTGDPSGPDGEVELDIEVAGALAPGAKFAVYFAPDTAAGFLDAITTAIHDPTLKPSVVSISWGGPEDSWTSAAIAAMNRAFLDAAALGVTVLAAAGDSGSTDGEQDGLYHVDFPAASPYVLACGGTRLVASGGRIAQETVWNDGPDGGATGGGVSRIFPLPAWQEHANVPPSANPGASSGRGVPDLAGNADPATGYEVVIDGEATVIGGTSAVAPLFAALVARINQKLGKAVGYLNPTLYQLPADVFHDITEGNNDIANRAQIYQAGPGWDPCTGLGSPIGVRLLQALLPSASQPQPGSTENLYFQSGALEHHHHHH
As for B5, the Fold Change in Activity of PQ Hydrolysis Relative to Wild Type Kumamolysin-As was 15 fold.

B6: Kumamolisin-As N291D, D293A, G319S, D358G, Q361D, D368H (protein)
chain: AAPTAYTPLDVAQAYQFPEGLDGQGQCIAIIELGGGYDEASLAQYFASLGVPAPQVVSVSVDGASNQPTGDPSGPDGEVELDIEVAGALAPGAKFAVYFAPDTAAGFLDAITTAIHDPTLKPSVVSISWSGPEDSWTSAAIAAMNRAFLDAAALGVTVLAAAGDSGSTGGEDDGLYHVHFPAASPYVLACGGTRLVASGGRIAQETVWNDGPDGGATGGGVSRIFPLPAWQEHANVPPSANPGASSGRGVPDLAGNADPATGYEVVIDGEATVIGGTSAVAPLFAALVARINQKLGKAVGYLNPTLYQLPADVFHDITEGNNDIANRAQIYQAGPGWDPCTGLGSPIGVRLLQALLPSASQPQPGSTENLYFQSGALEHHHHHH
B6 showed a Fold Change in Activity of PQ Hydrolysis Relative to Wild Type Kumamolysin-As of 40.9 fold.

B7: Kumamolisin-As S354N, D358G, D368H (protein)
chain: AAPTAYTPLDVAQAYQFPEGLDGQGQCIAIIELGGGYDEASLAQYFASLGVPAPQVVSVSVDGASNQPTGDPSGPDGEVELDIEVAGALAPGAKFAVYFAPNTDAGFLDAITTAIHDPTLKPSVVSISWGGPEDSWTSAAIAAMNRAFLDAAALGVTVLAAAGDNGSTGGEQDGLYHVHFPAASPYVLACGGTRLVASGGRIAQETVWNDGPDGGATGGGVSRIFPLPAWQEHANVPPSANPGASSGRGVPDLAGNADPATGYEVVIDGEATVIGGTSAVAPLFAALVARINQKLGKAVGYLNPTLYQLPADVFHDITEGNNDIANRAQIYQAGPGWDPCTGLGSPIGVRLLQALLPSASQPQPGSTENLYFQSGALEHHHHHH
The protein B7 displayed a Fold Change in Activity of PQ Hydrolysis Relative to Wild Type Kumamolysin-As of 9 fold.

B8: Kumamolisin-As N291D, D293A, Q361D, D358N (protein)
chain: AAPTAYTPLDVAQAYQFPEGLDGQGQCIAIIELGGGYDEASLAQYFASLGVPAPQVVSVSVDGASNQPTGDPSGPDGEVELDIEVAGALAPGAKFAVYFAPDTAAGFLDAITTAIHDPTLKPSVVSISWGGPEDSWTSAAIAAMNRAFLDAAALGVTVLAAAGDSGSTNGEDDGLYHVDFPAASPYVLACGGTRLVASGGRIAQETVWNDGPDGGATGGGVSRIFPLPAWQEHANVPPSANPGASSGRGVPDLAGNADPATGYEVVIDGEATVIGGTSAVAPLFAALVARINQKLGKAVGYLNPTLYQLPADVFHDITEGNNDIANRAQIYQAGPGWDPCTGLGSPIGVRLLQALLPSASQPQPGSTENLYFQSGALEHHHHHH
As to B8, the Fold Change in Activity of PQ Hydrolysis Relative to Wild Type Kumamolysin-As turned out to be 14.8 fold.

B9: Kumamolisin-As N291D (protein)
chain: AAPTAYTPLDVAQAYQFPEGLDGQGQCIAIIELGGGYDEASLAQYFASLGVPAPQVVSVSVDGASNQPTGDPSGPDGEVELDIEVAGALAPGAKFAVYFAPDTDAGFLDAITTAIHDPTLKPSVVSISWGGPEDSWTSAAIAAMNRAFLDAAALGVTVLAAAGDSGSTDGEQDGLYHVDFPAASPYVLACGGTRLVASGGRIAQETVWNDGPDGGATGGGVSRIFPLPAWQEHANVPPSANPGASSGRGVPDLAGNADPATGYEVVIDGEATVIGGTSAVAPLFAALVARINQKLGKAVGYLNPTLYQLPADVFHDITEGNNDIANRAQIYQAGPGWDPCTGLGSPIGVRLLQALLPSASQPQPGSTENLYFQSGALEHHHHHH
With B9, the Fold Change in Activity of PQ Hydrolysis Relative to Wild Type Kumamolysin-As is 10 fold.

B10: Kumamolisin-As T292S, N291D, G319S, D358G, D368H (protein)
chain: AAPTAYTPLDVAQAYQFPEGLDGQGQCIAIIELGGGYDEASLAQYFASLGVPAPQVVSVSVDGASNQPTGDPSGPDGEVELDIEVAGALAPGAKFAVYFAPDSDAGFLDAITTAIHDPTLKPSVVSISWSGPEDSWTSAAIAAMNRAFLDAAALGVTVLAAAGDSGSTGGEQDGLYHVHFPAASPYVLACGGTRLVASGGRIAQETVWNDGPDGGATGGGVSRIFPLPAWQEHANVPPSANPGASSGRGVPDLAGNADPATGYEVVIDGEATVIGGTSAVAPLFAALVARINQKLGKAVGYLNPTLYQLPADVFHDITEGNNDIANRAQIYQAGPGWDPCTGLGSPIGVRLLQALLPSASQPQPGSTENLYFQSGALEHHHHHH
The protein B10 displayed a Fold Change in Activity of PQ Hydrolysis Relative to Wild Type Kumamolysin-As of 49 fold.

B11: Kumamolisin-As N291D, Q361D, D358G (protein)
chain: AAPTAYTPLDVAQAYQFPEGLDGQGQCIAIIELGGGYDEASLAQYFASLGVPAPQVVSVSVDGASNQPTGDPSGPDGEVELDIEVAGALAPGAKFAVYFAPDTDAGFLDAITTAIHDPTLKPSVVSISWGGPEDSWTSAAIAAMNRAFLDAAALGVTVLAAAGDSGSTGGEDDGLYHVDFPAASPYVLACGGTRLVASGGRIAQETVWNDGPDGGATGGGVSRIFPLPAWQEHANVPPSANPGASSGRGVPDLAGNADPATGYEVVIDGEATVIGGTSAVAPLFAALVARINQKLGKAVGYLNPTLYQLPADVFHDITEGNNDIANRAQIYQAGPGWDPCTGLGSPIGVRLLQALLPSASQPQPGSTENLYFQSGALEHHHHHH
In turn, B11 yielded a Fold Change in Activity of PQ Hydrolysis Relative to Wild Type Kumamolysin-As of 20 fold.

B12: Kumamolisin-As N291D, G319S, S354N, D358G, Q361D, D368H (protein)
chain: AAPTAYTPLDVAQAYQFPEGLDGQGQCIAIIELGGGYDEASLAQYFASLGVPAPQVVSVSVDGASNQPTGDPSGPDGEVELDIEVAGALAPGAKFAVYFAPDTDAGFLDAITTAIHDPTLKPSVVSISWSGPEDSWTSAAIAAMNRAFLDAAALGVTVLAAAGDNGSTGGEDDGLYHVHFPAASPYVLACGGTRLVASGGRIAQETVWNDGPDGGATGGGVSRIFPLPAWQEHANVPPSANPGASSGRGVPDLAGNADPATGYEVVIDGEATVIGGTSAVAPLFAALVARINQKLGKAVGYLNPTLYQLPADVFHDITEGNNDIANRAQIYQAGPGWDPCTGLGSPIGVRLLQALLPSASQPQPGSTENLYFQSGALEHHHHHH
The protein B12 yielded a Fold Change in Activity of PQ Hydrolysis Relative to Wild Type Kumamolysin-As of 50 fold.

B13: Kumamolisin-As S262G, T292S, N291D, G319S, D358G, D368H (protein)
chain: AAPTAYTPLDVAQAYQFPEGLDGQGQCIAIIELGGGYDEASLAQYFASLGVPAPQVVSVSVDGASNQPTGDPGGPDGEVELDIEVAGALAPGAKFAVYFAPDSDAGFLDAITTAIHDPTLKPSVVSISWSGPEDSWTSAAIAAMNRAFLDAAALGVTVLAAAGDSGSTGGEQDGLYHVHFPAASPYVLACGGTRLVASGGRIAQETVWNDGPDGGATGGGVSRIFPLPAWQEHANVPPSANPGASSGRGVPDLAGNADPATGYEVVIDGEATVIGGTSAVAPLFAALVARINQKLGKAVGYLNPTLYQLPADVFHDITEGNNDIANRAQIYQAGPGWDPCTGLGSPIGVRLLQALLPSASQPQPGSTENLYFQSGALEHHHHHH
Regarding B13, the Fold Change in Activity of PQ Hydrolysis Relative to Wild Type Kumamolysin-As came to 29 fold.

B14: Kumamolisin-As N291D, G319S, D358G, Q361D, D368H (protein)
chain: AAPTAYTPLDVAQAYQFPEGLDGQGQCIAIIELGGGYDEASLAQYFASLGVPAPQVVSVSVDGASNQPTGDPSGPDGEVELDIEVAGALAPGAKFAVYFAPDTDAGFLDAITTAIHDPTLKPSVVSISWSGPEDSWTSAAIAAMNRAFLDAAALGVTVLAAAGDSGSTGGEDDGLYHVHFPAASPYVLACGGTRLVASGGRIAQETVWNDGPDGGATGGGVSRIFPLPAWQEHANVPPSANPGASSGRGVPDLAGNADPATGYEVVIDGEATVIGGTSAVAPLFAALVARINQKLGKAVGYLNPTLYQLPADVFHDITEGNNDIANRAQIYQAGPGWDPCTGLGSPIGVRLLQALLPSASQPQPGSTENLYFQSGALEHHHHHH
In the case of B14, the Fold Change in Activity of PQ Hydrolysis Relative to Wild Type Kumamolysin-As turned out to be 23.1 fold.
